Data: paper PMC4501333, “ATF4 licenses C/EBPβ activity in human mesenchymal stem cells primed for adipogenesis”

B1: hybrid (ATF4 motif) EMSA probe (dsDNA)
DNA 1: GAGCAAATCTGATGCAATATAAGTC
DNA 2: GGACTTATATTGCATCAGATTTGCT
B2: palindromic C/EBP EMSA probe (dsDNA)
DNA 1: GAGCAAATATTGCGCAATATAAGTC
DNA 2: GGACTTATATTGCGCAATATTTGCT

Experiments:
[1] = biological target: C/EBPβ (heterodimer subunit);ATF4 (heterodimer subunit) (human?;human?, UniProt P17676;P18848 1-345;1-351, |); experiment: EMSA; ATF4 added to C/EBPβ; higher affinity than C/EBPβ homodimer; antibodies inhibit heterodimer binding; EMSA: 10 mM HEPES pH 7.8, 50 mM NaCl, 10 mM MgCl2, 5 mM DTT, protease inhibitor, 0.25 mg/ml BSA, 5 ng/ul poly dIdC, 5% glycerol, ~5 fmol probe in 20 ul; native; conditions: protein: recombinant;recombinant; tags: N-terminal His (pET30a);N-terminal His (pET30a); copies: 1;1; label: 32P
Chain of C/EBPβ (heterodimer subunit);ATF4 (heterodimer subunit) (P17676 whole entry, chain 1 of 2): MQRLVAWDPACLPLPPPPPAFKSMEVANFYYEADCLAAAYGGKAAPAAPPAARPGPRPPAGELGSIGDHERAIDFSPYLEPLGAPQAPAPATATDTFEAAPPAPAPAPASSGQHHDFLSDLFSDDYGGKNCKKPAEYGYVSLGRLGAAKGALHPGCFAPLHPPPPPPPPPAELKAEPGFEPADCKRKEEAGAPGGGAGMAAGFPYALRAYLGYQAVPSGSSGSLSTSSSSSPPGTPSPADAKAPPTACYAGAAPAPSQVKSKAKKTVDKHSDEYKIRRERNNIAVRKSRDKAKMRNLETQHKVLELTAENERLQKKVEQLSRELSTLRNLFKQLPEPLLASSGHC
Chain of C/EBPβ (heterodimer subunit);ATF4 (heterodimer subunit) (P18848 whole entry, chain 2 of 2): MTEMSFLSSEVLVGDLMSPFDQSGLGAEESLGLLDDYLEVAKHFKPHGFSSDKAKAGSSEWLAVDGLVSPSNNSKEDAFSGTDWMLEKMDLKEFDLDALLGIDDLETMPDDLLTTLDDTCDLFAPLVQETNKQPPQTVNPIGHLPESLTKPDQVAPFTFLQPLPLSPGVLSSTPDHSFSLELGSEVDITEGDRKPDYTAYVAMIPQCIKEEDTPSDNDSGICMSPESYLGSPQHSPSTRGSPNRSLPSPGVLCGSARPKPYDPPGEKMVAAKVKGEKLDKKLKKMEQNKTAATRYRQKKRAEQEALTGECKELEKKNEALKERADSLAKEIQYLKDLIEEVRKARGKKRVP

ATF4 = ATF4 (UniProt P18848 1-351); experiment: EMSA; ATF4 alone, up to 90 uM; probe 0.25 nM; EMSA: 10 mM HEPES pH 7.8, 50 mM NaCl, 10 mM MgCl2, 5 mM DTT, protease inhibitor, 0.25 mg/ml BSA, 5 ng/ul poly dIdC, 5% glycerol, ~5 fmol probe in 20 ul; native; conditions: protein: recombinant; tags: N-terminal His (pET30a); chain copies: 2; label: 32P
Chain of ATF4 (P18848 whole entry): as the sequence (P18848 whole entry, chain 2 of 2) above

C/EBPβ = C/EBPβ (UniProt P17676 1-345); experiment: EMSA; C/EBPβ 100-900 nM; preferred site; probe 0.25 nM; EMSA: 10 mM HEPES pH 7.8, 50 mM NaCl, 10 mM MgCl2, 5 mM DTT, protease inhibitor, 0.25 mg/ml BSA, 5 ng/ul poly dIdC, 5% glycerol, ~5 fmol probe in 20 ul; native; conditions: protein: recombinant; tags: N-terminal His (pET30a); chain copies: 2; label: 32P
Chain of C/EBPβ (P17676 whole entry): as the sequence (P17676 whole entry, chain 1 of 2) above

Binder | binding result [1] | binding result (ATF4) | binding result (C/EBPβ)
B1 | binds | no binding | 
B2 |  | no binding | binds
